“Also recorded” adds a separate entry of the source. Counter-ions that a name gives are not always drawn.
Legend:
Format in all cases: in vivo, mouse
[1] = tested on: MIA offspring; test: Three-chamber social approach assay in PBS and MIA offspring; conditions: for sociability phenotype after IL-17a into S1DZ: MIA offspring, IL-17a 50 ng/side bilaterally into S1DZ, 4 hours, no LPS
Method: Adult male mice were assayed for sociability using a three-chamber social approach assay. The arena was constructed of white acrylic (50 cm×35 cm×30 cm). Wire cups (Spectrum Diversified®) were placed in the back left and right corner of the arena beneath water-filled 1 L bottles (Nalgene®). On Day 0, mice were habituated to the arena for 10 min. Immediately following habituation, mice were singly housed. On Day 1 (Pre), mice were placed in the center of the arena and allowed to freely explore. Following 10 min, mice were confined to the center of the arena. An inanimate object (rubber stopper) or a male conspecific were placed beneath the wire cups. Placement of the inanimate object and social target were alternated. Mice were then allowed to freely explore the arena for 10 min. Interaction time was defined as time spent in the areas circumscribing the wire cups (<2 cm). Sociability was defined as interaction time with the social target divided by total interaction time and expressed as a percentage. For experiments involving LPS injections, mice were injected with LPS ([…], i.p., L2630, Sigma) on Day 2 (Test), four hours prior to testing. […]
Adult male mice were implanted with cannula into S1DZ and allowed to recover for >2 weeks prior to behavioral experiments. On Day 1 (Pre) mice were assayed for sociability. On Day 2 (Test), mice were anesthetized briefly using isoflurane and either vehicle or IL-17a (50 ng/side in 1 μl at a rate of 180 nl/min, 7956-ML/CF, R&D®) was administered bilaterally into S1DZ through 250 μm-projecting injector tips (PlasticsOne®). Four hours after vehicle or IL-17a administration, mice were assayed for sociability. Cannula placements were verified using histology.
(§1) Adult male mice were assayed for sociability using a three-chamber social approach assay. The arena was constructed of white acrylic (50 cm×35 cm×30 cm). Wire cups (Spectrum Diversified®) were placed in the back left and right corner of the arena beneath water-filled 1 L bottles (Nalgene®). On day 0, mice were habituated to the arena for 10 min. Immediately following habituation, mice were singly housed. On day 1 (Pre), mice were placed in the center of the arena and allowed to freely explore. Following 10 min, mice were confined to the center of the arena. An inanimate object (rubber stopper) or a male conspecific were placed beneath the wire cups. Placement of the inanimate object and social target were alternated. Mice were then allowed to freely explore the arena for 10 min. Interaction time was defined as time spent in the areas circumscribing the wire cups (<2 cm). Sociability was defined as interaction time with the social target divided by total interaction time and expressed as a percentage. For experiments involving LPS injections, mice were injected with either saline (Veh) or LPS ([…], i.p., L2630, Sigma) on day 2 (Test), four hours prior to testing. For the experiment assaying sociability 72 hrs following LPS injection, mice used for 4 hr LPS sociability experiments were tested for sociability again at 72 hrs.
Adult male Vgat-Cre MIA offspring were bilaterally injected with virus encoding the inhibitory DREADD receptor fused to mCherry into the vLPO. Following >3 weeks of recovery, mice were assayed on the three-chamber social approach assay outlined above. Baseline sociability was assayed on day 1 (Pre). On day 2 and day 3, mice were injected with either Saline (Veh) or CNO (1.5 mg/kg i.p., BML-NS105, Enzo Life Sciences®), two hours prior to initiation of behavior. Injection order was counterbalanced. Following behavioral experiments, post-mortem histology was used to confirm mCherry expression within the vLPO. For experiments assaying the effect of CNO and LPS injection in Vgat-Cre PBS and MIA offspring that have not undergone surgery, baseline sociability was assessed on day 1. On day 2 and 3 mice received counterbalanced injections of CNO or vehicle. On day 4, mice were injected with LPS. […]

[2] = tested on: IL-17a, IFNγ, IL-6, TNFα; test: ELISA of cytokines in plasma and brain lysate; conditions: LPS-injected MIA offspring; antibiotic by oral gavage
Method: Mice were put under general anesthesia by intraperitoneal injection of Ketamine (100 mg/kg, i.p.) and xylazine (10 mg/kg, i.p.). Blood was collected by retro-orbital puncture, using clean heparinized microhematocrit capillary tubes (Fisher Scientific®). Once the tube was withdrawn, slight pressure was applied on the eyelid with gauze to prevent further bleeding. All blood samples were centrifuged at 15,000 g for 3 min at room temperature. For quantification of cytokines in brain lysate, samples were disrupted in cold lysis buffer with protease inhibitor cocktail for 60 seconds using the Micro-Homogenizer (VWR International) and centrifuged for 30 min at 15,000×g to remove insoluble precipitates. All samples were stored at −80° C. until further analysis. Plasma and brain lysate cytokines concentrations were measured using an ELISA kit (Biolgened™), following the manufacturer's instructions.
After four hours of vehicle or LPS administration, mice were anesthetized by intraperitoneal injection of fatal plus (100 mg/kg). All blood samples were centrifuged at 10,000 g for 10 min at 4 C. All samples were stored at −80° C. until further analysis. Cytokines concentrations in plasma were measured using an ELISA kit (IFN-γ; 430804, TNF-α; 430904, IL-6; 431304, IL-17a; 432504, Biolegend®), following the manufacturer's instructions.

[3] = tested on: segmented filamentous bacteria (SFB); test: SFB levels by 16S rRNA qPCR of fecal pellets and SEM of ileum after antibiotics; conditions: Taconic-derived mice; vancomycin 2.5 mg/kg or metronidazole 10 mg/kg orally every two days
Method: For SFB-gavaging experiments, four fecal pellets of SFB mono-colonized mice were dissolved in 20 ml sterile PBS and filtered through a 100-μm cell strainer. 200 μl of fecal suspensions were gavaged via oral route into 8 to 9-week-old male cross-fostered mice. Control mice were gavaged with PBS. The SFB colonization was tested on day 7 following SFB-gavaging. For antibiotics treatments, Taconic-derived male mice were orally gavaged with vancomycin hydrochloride (Fisher) (2.5 mg/kg) or metronidazole (10 mg/kg) (Sigma Aldrich®) every two days, starting 21 days before behavioral test. Mouse fecal pellets were collected and stored at −80° C. before and after vancomycin and metronidazole treatments.
Bacterial genomic DNA was isolated from the fecal pellets of mice with phenol-chloroform extraction. qPCR was performed to quantify relative abundance of segmented filamentous bacteria (SFB). […] Data were analysed using Roche (Lightcylcler^R 96 SW1.1) Software and the relative quantification (fold) of SFB DNA was performed using the ΔΔCt method.
Terminal ileum tissues from mice (8-10 weeks old) were cut open and fixed with 2.5% glutaraldehyde in 0.1 M cacodylate buffer (pH 7.4) overnight and processed for standard scanning electron microscopy. All samples were analysed on a Hitachi S-4800 Type II Field Emission Scanning Electron Microscope™.

[4] = tested on: Cntnap2, Fmr1, and Shank3 mutant mice; test: Three-chamber social approach assay in monogenic mutant mice; conditions: Cntnap2 and Fmr1 (monogenic) mutant mice, IL-17a 50 ng/side bilaterally into S1DZ, 4 hours
Method: All experiments were performed according to Guide for the Care and Use of Laboratory Animals and were approved by the National Institutes of Health and the Committee on Animal Care at Massachusetts Institute of Technology. C57BL/6 were purchased from Taconic Biosciences for generating PBS and MIA offspring. Vgat-Cre (028862) were purchased from Jackson Laboratories and inbred. For monogenic experiments, C57BL/6, Cntnap2 (017482), Fmr1 (003025), and Shank3 (017688) mice were purchased from Jackson Laboratories and inbred after colonizing with SFB from donor mice. IL-17Ra^fl/fl and IL-17RaKO were previously described^24,25. All mice were males aged 2-5 months, unless otherwise specified.
as §1, with “hrs. […]” for “hrs.”

## CN[C@H](CC(C)C)C(=O)N[C@H]1C(=O)N[C@@H](CC(N)=O)C(=O)N[C@H]2C(=O)N[C@H]3C(=O)N[C@H](C(=O)N[C@H](C(=O)O)c4cc(O)cc(O)c4-c4cc3ccc4O)[C@H](O)c3ccc(c(Cl)c3)Oc3cc2cc(c3O[C@@H]2O[C@H](CO)[C@@H](O)[C@H](O)[C@H]2O[C@H]2C[C@](C)(N)[C@H](O)[C@H](C)O2)Oc2ccc(cc2Cl)[C@H]1O [vancomycin, vancomycin hydrochloride]
[1]; LPS-injected MIA offspring, antibiotic by oral gavage every two days from 21 days before test
  LPS-induced reversal of the sociability phenotype after antibiotic pretreatment: prevented the reversal of the sociability phenotype
[2]
  LPS-induced increase in plasma and brain IL-17a and plasma IFNγ after antibiotic pretreatment: suppressed the systemic increase in plasma and brain levels of IL-17a as well as the plasma levels of IFNγ
[3]
  intestinal colonization by SFB (qPCR of fecal samples): severely reduced

## C[N+]1([O-])CCN(C2=Nc3cc(Cl)ccc3Nc3ccccc32)CC1 [CNO]
[1]; Vgat-Cre MIA offspring without surgery, CNO 1.5 mg/kg i.p. or LPS
  sociability in MIA Vgat-Cre mice: unaffected by CNO treatment

B1: recombinant IL-17a: recombinant IL-17a protein (7956-ML/CF, R&D) administered bilaterally into S1DZ (protein)
chain: AAIIPQSSACPNTEAKDFLQNVKVNLKVFNSLGAKVSSRRPSDYLNRSTSPWTLHRNEDPDRYPSVIWEAQCRHQRCVNAEGKLDHHMNSVLIQQEILVLKREPESCPFTFRVEKMLVGVGCTCVASIVRQAA
[1]
  sociability phenotype after IL-17a into S1DZ: sufficient to promote sociability in monogenic mutant mice as well as in MIA offspring; also recorded: sufficient to rescue the sociability phenotypes of not only MIA offspring
[1]; listed as IL-17a
  sociability phenotype after IL-17a into S1DZ: sufficient to rescue sociability deficits in MIA offspring; also recorded: rescues sociability deficits in both MIA offspring and monogenic mutant mice
[1]; listed as exogenous IL-17a
  sociability phenotype after IL-17a into S1DZ: rescued sociability deficits
[1]; listed as recombinant IL-17a protein
  sociability phenotype after IL-17a into S1DZ: sufficient to rescue the sociability phenotype of MIA offspring
[4]
  sociability phenotype after IL-17a into S1DZ: sufficient to promote sociability in monogenic mutant mice
[4]; listed as IL-17a
  sociability phenotype after IL-17a into S1DZ: rescues sociability deficits in both MIA offspring and monogenic mutant mice

Reference: patent US20220072101A1, “HARNESSING INFLAMMATION TO TREAT NEURODEVELOPMENTAL DISORDERS” (President and Fellows of Harvard College, priority 2019, published 2022)
